Our source for the binding result, Kd and IC50 values is patent US20180291096A1 (Janssen / Centocor, published 2018).

The target in experiment [1] is T1, recombinant human IL-12 (hrIL-12), produced at Centocor (human, UniProt P29459 23-219; P29460 23-328).
T1 construct: also called IL-12 CNTO
T1 sequence (looked up) 1: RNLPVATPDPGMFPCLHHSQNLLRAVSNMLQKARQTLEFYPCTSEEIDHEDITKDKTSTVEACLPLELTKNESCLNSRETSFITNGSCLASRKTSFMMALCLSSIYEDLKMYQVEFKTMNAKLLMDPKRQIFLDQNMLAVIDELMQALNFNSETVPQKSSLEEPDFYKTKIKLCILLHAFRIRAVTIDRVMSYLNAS
T1 sequence (looked up) 2: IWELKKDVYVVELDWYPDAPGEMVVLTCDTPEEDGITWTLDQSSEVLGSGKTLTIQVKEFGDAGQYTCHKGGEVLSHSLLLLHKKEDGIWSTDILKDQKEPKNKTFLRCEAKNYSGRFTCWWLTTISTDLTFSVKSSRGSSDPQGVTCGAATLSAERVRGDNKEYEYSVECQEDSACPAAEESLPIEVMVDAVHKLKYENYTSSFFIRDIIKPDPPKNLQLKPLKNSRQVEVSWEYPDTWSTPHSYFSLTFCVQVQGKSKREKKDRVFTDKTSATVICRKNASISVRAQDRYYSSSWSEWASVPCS
Nature of the experiment: not told.

For experiment [2], the target named is T2, recombinant human IL-23 (hrIL-23), produced at Centocor (human, UniProt P29460 23-328).
T2 construct: p19-p40 heterodimer; also called rhIL-23; huIL-23
T2 sequence 1: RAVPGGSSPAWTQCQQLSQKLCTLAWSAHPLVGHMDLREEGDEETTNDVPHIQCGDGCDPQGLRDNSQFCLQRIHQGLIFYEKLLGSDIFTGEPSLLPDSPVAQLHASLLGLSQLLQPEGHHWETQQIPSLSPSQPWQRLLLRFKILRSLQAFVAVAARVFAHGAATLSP
T2 sequence 2: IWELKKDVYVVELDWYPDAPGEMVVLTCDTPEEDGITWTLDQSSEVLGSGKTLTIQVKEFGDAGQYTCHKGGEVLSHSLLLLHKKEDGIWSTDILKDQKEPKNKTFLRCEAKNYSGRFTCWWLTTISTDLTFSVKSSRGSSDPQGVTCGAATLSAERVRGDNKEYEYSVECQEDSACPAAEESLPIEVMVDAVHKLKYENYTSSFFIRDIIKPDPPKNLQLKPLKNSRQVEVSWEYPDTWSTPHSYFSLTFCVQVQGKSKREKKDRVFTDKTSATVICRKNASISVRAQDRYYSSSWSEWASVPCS
Nature of the experiment: SET.

Experiment [3] concerns the target T2, recombinant human IL-23 (hrIL-23), …. Nature of the experiment: IL-23/IL-23R competition assay.
Experiment [4] shares this target. The experiment can be described thus: hrIL-23/hIL-23R competition assay.
For experiment [5] the target is unchanged. Nature of the experiment: Biacore, Fab capture. Background: In SPR one partner is held on a chip, and binding of the other changes the refractive index at the surface.
Experiment [6] shares this target. The experiment can be described thus: SET. This is another data set of the same source.
The target is the same in experiment [7]. The experiment can be described thus: IL-23/IL-23R competition assay. The source holds these as a separate data set.

B1: MOR05042 Fab (Fab, V domains shown)
VH: QVQLVQSGAEVKKPGESLKISCKGSGYSFSNYWIGWVRQMPGKGLEWMGIISPTGSSTWYSPSFQGQVTISADKSISTAYLQWSSLKASDTAMYYCARWYYKPFDVWGQGTLVTVSS
VL: DIVLTQPPSVSGAPGQRVTISCTGSSSNIGSGYDVHWYQQLPGTAPKLLIYGNSKRPSGVPDRFSGSKSGTSASLAITGLQSEDEADYYCSSWTPSSVVFGGGTKLTVL
notes: Fab
The Kd is the constant that tells how readily two partners part at equilibrium. What is called IC50 is the midpoint of a concentration-inhibition curve. For B1, in experiment [1], the binding result is “no binding”. The Kd in experiment [2] was 0.004 nM. Besides, in experiment [3], the IC50 amounted to 0.06 nM.

B2: MOR05045 Fab (Fab, V domains shown)
VH: QVQLVQSGAEVKKPGESLKISCKGSGYSFSNYWIGWVRQMPGKGLEWMGIISPTGSATWYSPSFQGQVTISADKSISTAYLQWSSLKASDTAMYYCARWYYKPFDVWGQGTLVTVSS
VL: DIVLTQPPSVSGAPGQRVTISCTGSSSNIGSGYDVHWYQQLPGTAPKLLIYGNSKRPSGVPDRFSGSKSGTSASLAITGLQSEDEADYYCSSWTPSSVVFGGGTKLTVL
notes: Fab
For B2, in experiment [1], the binding result is reported as “no binding”. Also, in experiment [2], the Kd amounted to 0.009 nM. Moreover, the IC50 in experiment [3] was 0.05 nM.

B3: MOR04649 Fab (Fab, V domains shown)
VH: QVQLVQSGAEVKKPGESLKISCKGSGYSFSNYWIGWVRQMPGKGLEWMGIIDPSNSYTNYSPSFQGQVTISADKSISTAYLQWSSLKASDTAMYYCARWYYKPFDVWGQGTLVTVSS
VL: DIVLTQPPSVSGAPGQRVTISCTGSSSNIGSGYDVHWYQQLPGTAPKLLIYGNSKRPSGVPDRFSGSKSGTSASLAITGLQSEDEADYYCSSWTPSSVVFGGGTKLTVL
notes: Fab
B3: the IC50 was 0.2 nM in experiment [4] and 1.2 nM in experiment [3]. In addition, the values for the Kd in experiment [2] and in experiment [5] were 1.1 nM and 7 nM, respectively.

B4: MOR05049 Fab (Fab, V domains shown)
VH: QVQLVESGGGLVQPGGSLRLSCAASGFTFSSFGMSWVRQAPGKGLEWVSGIEHKYLSYTTHYAASVKGRFTISRDNSKNTLYLQMNSLRAEDTAVYYCARYWGTPYLMQFDNWGQGTLVTVSS
VL: DIALTQPASVSGSPGQSITISCTGTSSDVGGYNSVSWYQQHPGKAPKLMIYSVSSRPSGVSNRFSGSKSGNTASLTISGLQAEDEADYYCSSYDTNKPLVVFGGGTKLTVL
notes: Fab
Regarding B4, the binding result in experiment [1] is reported as “no binding”. In addition, the Kd in experiment [6] was 0.007 nM. In addition, the IC50 in experiment [7] stood at 0.39 nM.

B5: MOR04658 Fab (Fab, V domains shown)
VH: QVQLVESGGGLVQPGGSLRLSCAASGFTFSSFGMSWVRQAPGKGLEWVSNISSSGSSTYYADSVKGRFTISRDNSKNTLYLQMNSLRAEDTAVYYCARYWGTPYLMQFDNWGQGTLVTVSS
VL: DIALTQPASVSGSPGQSITISCTGTSSDVGGYNSVSWYQQHPGKAPKLMIYSVSSRPSGVSNRFSGSKSGNTASLTISGLQAEDEADYYCSSYDTNKPLVVFGGGTKLTVL
notes: Fab
For the molecule B5, the concentration for half-maximal inhibition (IC50) in experiment [4] is 0.7 nM; in experiment [7] it was 14 nM. The Kd in experiment [6] is 4.3 nM; in experiment [5] it was 11 nM.
